# T1: oxidized form of human α-defensin HD5 (HD5 with three intramolecular disulfide bonds) (human, six cysteine residues form three intramolecular disulfide bonds (oxidized form))
# T1 construct: Chemically synthesized mature HD5 (32 amino acids), oxidized and purified by reverse-phase chromatography; confirmed by MALDI-TOF MS; also called ox-HD5; DEFA5
# T1 peptide: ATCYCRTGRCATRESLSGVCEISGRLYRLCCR
# T2: reduced form of HD5 (HD5 without any intramolecular disulfide bond) (human, no intramolecular disulfide bonds (reduced form))
# T2 construct: Chemically synthesized mature HD5 before the oxidation treatment; also called r-HD5
# T2 peptide: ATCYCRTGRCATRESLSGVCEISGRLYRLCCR
# B1: monoclonal antibody 12-1 (antibody, V domains shown)
# VH: QVQLQQSGAELARPGASVKLSCKASGYTFTSYGISWVKQRTGQGLEWIGEIYPRSGNTYYNEKFKGKATLTADKSSSTAYMQLSSLTSEDSAVYFCARDYDGFPYFDYWGQGTTLTVSS
# VL: DIVLTQSPASLAVSLGQRATISCRASESVDSYGYSFMHWYQQKPGQPPKLLIYRASNLESGIPARFSGSGSRTDFTLTINPVEADDVATYYCQQSNEDPRTFGGGTKLEIK
# notes: constant regions are not; Immobilized on the plate as capture antibody in the sandwich ELISA; also called capture antibody 12-1; anti-ox-HD5 monoclonal antibody according to a)
# B2: monoclonal antibody 39E-7 (antibody, V domains shown)
# VH: EVQLQQSGPELVKPGASVKISCKASGYSFTGSYMNWVKQSPEKSLEWIGEINPSTGGTTHNQKFKAKATLTVDTSSSTFYMQLKSLTSEDSAVYYCARDYAGSYDWYFDVWGAGTTVTVSS
# VL: DIKMTQSPSSMYASLGERVTITCKASQDINSYLSWFQQKPGKSPKTLIYRANRLVDGVPSRFSGSGSGQDYSLTISSLEYEDMGIYYCLQYDEFPYTFGGGTKLEII
# notes: constant regions are not; also called detection antibody 39E-7; anti-ox-HD5 monoclonal antibody according to b)
# How the values were obtained:
# [1] = target: T1, oxidized form of human α-defensin HD5 …; assay: indirect ELISA screening, plate coated with 1 µg/ml ox-HD5, hybridoma supernatant
# Procedure: Autoimmune disease mice (C3H/HeJJmsSlc-lpr/lpr available from Japan SLC, Inc.) injected with an adjuvant according to a conventional method were immunized with ox-HD5 by three times of intra-abdominal injection (0.2 mg each time). Later, cells were collected from the spleen of the immunized mice according to a conventional method, and then fused with a mouse myeloma cell line P3U1 with use of 50% polyethylene glycol 1500 (Sigma-Aldrich Co. LLC) to prepare hybridomas. Each hybridoma clone was screened by indirect ELISA, and subcloned four times by a limiting dilution method.
# The indirect ELISA was carried out by the following procedures. Wells of a flat-bottomed microtiter plate (Nunc) were coated with 1 μg/ml of ox-HD5 dissolved in Ca²⁺/Mg²⁺-free phosphate buffered saline (PBS), and then incubated overnight at 4° C. After three times of washing with PBS containing 0.1% Tween 20 (PBS-T), culture supernatant from each hybridoma clone was added to the wells, and incubated at 37° C. for 1 hour. […] 100 μL of 3,3′,5,5′-tetramethylbenzidine (TMB) substrate buffer (KPL) was added to each well, then the plate was incubated at 25° C. for 30 minutes, and then absorbance at 405 nm was measured with use of a microplate reader Multiscan FC (Thermo Scientific).
# [2] = target: T2, reduced form of HD5 (HD5 without any …); assay: sandwich ELISA, capture 12-1 (1 mg/ml) with detection 39E-7 (0.5 mg/ml), antigen 0 to 60 ng/ml
# [3] = target: T1, oxidized form of human α-defensin HD5 …; assay: sandwich ELISA, capture 12-1 (1 mg/ml) with detection 39E-7 (0.5 mg/ml)
Binder,binding result [1],binding result [2],binding result [3]
B1,binds,binds,
B2,,binds,binds

# From US20220357317A1 (NATIONAL UNIVERSITY COMORATION HOKKAIDO UNIVERSITY, published 2022)
